Patent US20250361296A1 (BIOCYTOGEN PHARMACEUTICALS BEIJING, published 2025)

T1: His-tagged mouse SIGLEC15 protein (mSIGLEC15-His, ACROBiosystems Inc., Cat #: SG5-M52H7) (mouse)
T1 construct: Bought protein; not shown: His tag
T1 chain: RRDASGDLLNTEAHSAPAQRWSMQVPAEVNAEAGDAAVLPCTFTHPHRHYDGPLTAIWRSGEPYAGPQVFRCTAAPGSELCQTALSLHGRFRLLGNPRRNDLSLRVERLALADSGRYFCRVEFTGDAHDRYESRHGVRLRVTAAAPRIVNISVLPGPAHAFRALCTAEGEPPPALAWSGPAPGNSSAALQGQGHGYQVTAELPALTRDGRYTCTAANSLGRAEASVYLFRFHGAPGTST

T2: His-tagged human SIGLEC15 protein (hSIGLEC15-His, Novoprotein Scientific Inc., Cat #: CW37) (human, UniProt Q6ZMC9 20-263)
T2 construct: Bought protein; not shown: His tag
T2 sequence: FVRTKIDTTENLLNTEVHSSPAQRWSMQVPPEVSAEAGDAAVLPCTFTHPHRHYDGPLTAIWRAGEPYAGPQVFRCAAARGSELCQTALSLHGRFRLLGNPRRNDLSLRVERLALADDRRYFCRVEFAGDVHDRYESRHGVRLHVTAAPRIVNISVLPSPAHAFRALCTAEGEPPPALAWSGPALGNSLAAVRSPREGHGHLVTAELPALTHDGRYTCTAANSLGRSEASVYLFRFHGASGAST

T3: human SIGLEC15 on CHO-S-hSIGLEC15 cells (human, UniProt Q6ZMC9 20-328)
T3 sequence: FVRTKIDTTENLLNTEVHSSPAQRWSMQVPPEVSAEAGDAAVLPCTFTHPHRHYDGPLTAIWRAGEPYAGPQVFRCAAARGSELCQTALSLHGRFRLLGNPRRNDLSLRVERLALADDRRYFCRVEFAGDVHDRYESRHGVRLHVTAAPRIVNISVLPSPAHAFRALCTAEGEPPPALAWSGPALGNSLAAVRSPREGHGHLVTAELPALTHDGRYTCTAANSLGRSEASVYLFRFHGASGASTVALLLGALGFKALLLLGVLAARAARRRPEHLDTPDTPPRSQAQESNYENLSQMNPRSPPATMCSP


How the values were obtained:
[1] = target: T1, His-tagged mouse SIGLEC15 protein …; assay: SPR (Biacore 8K), antibody captured on Protein A chip, His-tagged SIGLEC15 as analyte
Procedure: (§1) Purified anti-SIGLEC15 antibodies was captured on the Protein A chip (Series S Sensor Chip Protein A) for the detection. […] The flow rate was 30 μL/min, the binding and dissociation time were set to 180 s and 600 s, respectively. The chip was regenerated after the last injection of each titration with a glycine solution (pH 2.0) at 30 μL/min for 30 seconds.
(§2) Kinetic association rates (kon) and dissociation rates (koff) were obtained simultaneously by fitting the data globally to a 1:1 Langmuir binding model (Karlsson, R. Roos, H. Fagerstam, L. Petersson, B., 1994. Methods Enzymology 6. 99-110) using Biacore™ 8K Evaluation Software 3.0. Affinities were deduced from the quotient of the kinetic rate constants (KD=koff/kon). As a person of ordinary skill in the art would understand, the same method with appropriate adjustments for parameters (e.g., antibody concentration) was performed for each tested antibody.

[2] = target: T2, His-tagged human SIGLEC15 protein …; assay: as above
Procedure: as §1, §2

[3] = target: T3, human SIGLEC15 on CHO-S-hSIGLEC15 cells; assay: flow cytometry (MFI) on CHO-S-hSIGLEC15 cells; antibody sample: pH 3.5 0 h
Procedure: (§3) In the activity detection experiment, 30 μL of CHO-S-hSIGLEC15 cells were added to the culture plate, and the antibody to be tested was added in a gradient dilution ([…]), and incubated at 4° C. for 30 min. The plate was washed with PBS, and diluted secondary antibody Anti-hIgG-Fc-Alex Flour 647 (RL1-H) (1:2000) was added, incubated at 4° C. for 30 min. The plate was washed once with PBS and the cells were resuspended for flow cytometry detection. MFI value was derived by FlowJo 7.6.1 analysis to calculate EC50.

[4] = target: T3, human SIGLEC15 on CHO-S-hSIGLEC15 cells; assay: flow cytometry (MFI) on CHO-S-hSIGLEC15 cells; antibody sample: 25° C. 7 d
Procedure: as §3

[5] = target: T3, human SIGLEC15 on CHO-S-hSIGLEC15 cells; assay: flow cytometry (MFI) on CHO-S-hSIGLEC15 cells; antibody sample: 40° C. 7 d
Procedure: as §3

[6] = target: T3, human SIGLEC15 on CHO-S-hSIGLEC15 cells; assay: flow cytometry (MFI) on CHO-S-hSIGLEC15 cells; antibody sample: pH 3.5 6 h
Procedure: as §3

[7] = target: T3, human SIGLEC15 on CHO-S-hSIGLEC15 cells; assay: flow cytometry (MFI) on CHO-S-hSIGLEC15 cells; antibody sample: freeze 1
Procedure: as §3

[8] = target: T3, human SIGLEC15 on CHO-S-hSIGLEC15 cells; assay: flow cytometry (MFI) on CHO-S-hSIGLEC15 cells; antibody sample: 4° C. 7 d
Procedure: as §3

[9] = target: T3, human SIGLEC15 on CHO-S-hSIGLEC15 cells; assay: flow cytometry (MFI) on CHO-S-hSIGLEC15 cells; antibody sample: freeze 10
Procedure: as §3

[10] = target: T3, human SIGLEC15 on CHO-S-hSIGLEC15 cells; assay: flow cytometry (MFI) on CHO-S-hSIGLEC15 cells; antibody sample: 0 d
Procedure: as §3

Kd [1] [pM]	koff [1] [s⁻¹]	kon [1] [M⁻¹ s⁻¹]	Kd [2] [pM]	koff [2] [s⁻¹]	kon [2] [M⁻¹ s⁻¹]	EC50 [3] [µg/mL]	EC50 [4] [µg/mL]	EC50 [5] [µg/mL]	EC50 [6] [µg/mL]	EC50 [7] [µg/mL]	EC50 [8] [µg/mL]	EC50 [9] [µg/mL]	EC50 [10] [µg/mL]	Binder
1970	0.00126	639000	0.164	6.85e-07	4.19e+06	0.148	0.106	0.111	0.221	0.125	0.122	0.129	0.129	anti-SIGLEC15 antibody 23F4 (antibody, human IgG1, V domains shown) VH: QVQLQQWGAGLLKPSETLSLTCAVYGGSFSGYFWSWIRQPPGKGLEWIGEINHSGSTNYNPSLKSRVTLSVDTSKNQFSLKLSSVTAADTAVYYCAREGDSSSWGNWFDPWGQGTLVTVSS VL: EIVLTQSPGTLSLSPGERATLSCRASQSVSSSYLAWYQQKPGQAPRFLIYGASSRATGIPDRFSGSGSGTDFTLTISRLEPEDFAVYYCQQFGNSPLTFGGGTKVEIK
2170	0.00253	1.17e+06	0.0846	2.23e-07	2.63e+06	0.44	0.65	0.6	0.11	0.62	0.85	0.81	1.17	anti-SIGLEC15 antibody 10C9 (antibody, human IgG1, V domains shown) VH: QVQLVQSGAEVKKPGATVKVSCKASGYTFTNYGFSWVRQAPGQGLEWMGWINTYNDNTNYAQKFQGRVTMTTDTSTSTAYMELRSLRSDDTAVYYCARDGLWFGELPHYFDYWGQGTLVTVSS VL: DIQLTQSPLSSPVTLGQPASISCRSSQSLVNSDGETFLSWLQQRPGQPPRLLIYKISNRFSGVPDRFSGSGAGTDFTLKISRVEAEDVGVYYCMQATQFPHTFGQGTKLEIK
